According to the DeepSol protein solubility set:

Test: soluble on expression in E. coli; label from the status in PepcDB or PDB records

Row | Sequence | soluble on expression in E. coli
1 | MSLAQTPVMDVGTKSYISHQEQKMTATVEQIESWIVDVPTIRPHKLSMTTMGCQSLVIVRLTRSDGICGIGEATTIGGLSYGVESPEAISSAITHYLTPLLKGQPADNLNALTARMNGAIKGNTFAKSAIETALLDAQGKALGLPVSALLGGALQTALPVLWTLASGDTAKDIAEGEKLLAEGRHRAFKLKIGARELATDLRHTRAIVEALGDRASIRVDVNQAWDAATGAKGCRELAAMGVDLIEQPVSAHDNAALVRLSQQIETAILADEAVATAYDGYQLAQQGFTGAYALKIAKAGGPNSVLALARVAQAAGIGLYGGTMLEGTVGTVASLHAWSTLPLQWGTEMFGPLLLKDDIVSVPLTFADGQVALPQTPGLGVELDEDKLHFYTRQEGHHHHHH | soluble
2 | VAVTCRVLKLARQPYYRWRAHPVTDAEIVEAYRANALFDAHKDDPEFGYRYLVEEARDAGEPMAERTAWRICSQQGLWSVFGKKRGKNGKPGPPVHDDLVERDFTASEPNALWLSDITEHRTGEGKLYLCAIKDVFSNRIVGYSIDSRMKSRLATAALSSAVARRGDVDGCILHSDRGSQFRSRKFVHALHHHGMVGSMGRVGAAGDNAAMESFFSLLQKNVLDRRRWDTREQLRIAIVIWIERTYHRRRRQLTLGRLTPIEFEAIMTTPASQAA | soluble
3 | MKHEEMNQRFNHLENEITELNKKLSALVSSEDENKRRDEHYAAIYDYCHKVAHETFMKFLQEKFLPAALSEKEAAYLRPEYVITVNSAGEEEHKSDFIASAPDKDQEPHRPFRVSCEEGEFVVYENGKPVRASHHHCLKIINLAIRCLKDENTRVMKRIGRCMGYLQVAAEIEALASGADMDAAVREALLRDFNTPPLRKSLMTGSSRG | not soluble
4 | MNAIILAAGFGSRLMPLTKDQPKCMVEYKNKKIIDYEIEALKSAGINEIAVVGGYLNDVLKNYLNKYDIEHFFINSKYDKTNMVHTFFCAKDFMLKCIEEKQDLIISYADIVYFQDCVQKLINAKEELAIVVDKSWCKLWSKRFANPLEDAETLKMTNGYIIELGKKANAYDEIEAQYIGLFKFSYQFLSEVIAFYEMLDRDILYDNKNFENMYMTSFLQALIEKYNNAKAVEIDGNWCEIDFMSDLEVQIEKLEHHHHHH | not soluble
5 | MKLIIAVVQDKDSNRLSEALVKANYRATKLASTGGFLKAGNTTFLIGTEDEHVEEVMSIIKDNCKSRDQLVAPISPMGGNADSYVPYPVEVQVGGATVFVLPVEQFEQY | not soluble
6 | MAGDPMKNKSLLLAVAISATLLAGCKNGVNGNLIASSGMSTYKAATLSDADVKALSNNACKQMDSENQLAGSKSKYTKRLSKIAKALGNNIDGTPVSYKVYMTSDINAWAMANGCVRVYSGLMDLMTDNEIEGVLGHELGHVSLGHSRKAMQTAYATLAARDAISATSGVAAQLSQSQLGDLAEGVINSAFSRSQESDADDFSYDLLKKRGINTQGLVTAFDKFATMDAGHAKSLMDSHPASADRAQHMRDRIAEDKKLEHHHHHH | soluble
7 | MKVPPKKKFLGNSEHPGDLLTQTSKCECQLASVYGNGRVPVKNKKATNAYFQQSIPSWSDTLRMTRQNKKQRGRRRWKKNRKKRRVKTG | not soluble
8 | MSYFSHQDPNNPESHINFTMAQMEIQRWTLLISNPEADASTLVMELKTVTGESKHFINQAINAMWALMKLPILRVVVETHFHVRIPYLARIMQAVKQAKPELWDELDHRIAEKLTPRIAGQALMEASALAGLITRWIKELDPTFTGKKRGPKGSDGTLTFRHVDGRTYISGNIDGVTGKLFQKALEKVKQKGEDLARALVTFLAGRTKVKIVSAVYTPLVGGVSWIPGVGFLSQEESRKLGKTASKVIDLDTIATRVENGYTPSPELRLYVMGRDGTCRHPGCTVSADNCQIDHVIPFGEGGLTVAWNLQCLCAHHHNMKTDGRIQAAIDSMGRVAWIGPCNRTVVTEPVGPLAQEMPTGQWGQTLEARMEKTFEKLRSSLEVLDDLEHHHHHH | soluble
9 | MGSDKIHHHHHHMNNMEIWVVDDDRDYCELIVEMLQDEFKVSPFYGAADFRVALQTQKPDLLLMDINLPDTDGITLCRELQASNQEVAVLFVSGMNTLEERLKAYEVNAVDFIAKPFELKELLAKVHSVAHYVMKQRELIQAESVSRNMAFQSMTESSQYGCVLQFFRQCFLCNDHQTLADAFFDLMQQLNLNTCLEIRGENVEYFAPRHAAISPIESNILELLDKHGRLYDFGCRTICNDKHVSFLIKNMPINDEVLYGRLRDIIAVVVEGLEARVLDISRQQTLTQVFLDIESLIGDINVATLEHDEKFSAALINMTTEIRGSFHVLDMTIEQEDYFTALIERNLKEVKSASEAFTRLQSALGKVMDVLGGSVS | not soluble
10 | MARTAVPDNQPEITGFRIVLNNFEGPFDLLLQLISAKKLDVTDVALHKVTDDFVAYTRALGEFAELDEVTEFLVVAATLLDLKAARLLPRGEVDDLSDLELLESRDLLFARLLQYKAYKQVADQFARWQLAAQRRYPRAVGMEEQFSSLLPPVKISHTPKSFAELAASVFRPKPPDTVGTSHVHGVEVSVPEQAGKVLDLLVECGEGVWMDFPDLITGCRVSLEVVGRFLALLELYKARAVSLEQEESLGALRVSWTGIHVDPAIVAASNWA | not soluble
11 | MTKLTIFYDGTCPLCAKEMKALRQHDHKQEINTVDIYSDAFSAYPQINPDRANTILHALDNQGNLLLGLDVTYRAWQLVGRGWLYAPLRWPLIRPVADWLYLRFAQNRYRISYWLTGTSRCNSGRCSR | not soluble
12 | MGHHHHHHGGHMSLMASISSLGVGSGLDLSSILDSLTAAQKATLTPISNQQSSFTAKLSAYGTLKSALTTFQTANTALSKADLFSATSTTSSTTAFSATTAGNAIAGKYTISVTHLAQAQTLTTRTTRDDTKTAIATSDSKLTIQQGGDKDPITIDISAANSSLSGIRDAINNAKAGVSASIINVGNGEYRLSVTSNDTGLDNAMTLSVSGDDALQSFMGYDASASSNGMEVSVAAQNAQLTVNNVAIENSSNTISDALENITLNLNDVTTGNQTLTITQDTSKAQTAIKDWVNAYNSLIDTFSSLTKYTAVDAGADSQSSSNGALLGDSTLRTIQTQLKSMLSNTVSSSSYKTLAQIGITTDPSDGKLELDADKLTAALKKDASGVGALIVGDGKKTGITTTIGSNLTSWLSTTGIIKAATDGVSKTLNKLTKDYNAASDRIDAQVARYKEQFTQLDVLMTSLNSTSSYLTQQFENNSNSKEGGS | soluble
13 | MGSSHHHHHHSSGLVPRGSHMVASETLKTKKMEVQIKKNFPSVLQYTMTDGKVMYGQSKDVRTVEINGTNIELGDDDVTFKKVSDTEATYTLKVKDEAKKIDAVITVQITVKANQLHLNVTKIKNNLSEGIPEGNGVEENAIQTLSFPNQSLVSVRSSQENAQFTGARMSSNTQKPGDTNFAVTEDTNVTDSDYTYGFISGAGLSAGLWSNSEHDGTYVAAPVRGGSQNTRVYATTQQTGDATSLGLASAPWYYHRTVTDSKGKKYTVAETALPQMAVAIAGDENEDGAVNWQDGAIAYRDIMNNPYKSEEVPELVAWRIAMNFGSQAQNPFLTTLDNVKKVALNTDGLGQSVLLKGYGNEGHDSGHPDYGDIGQRLGGADDMNTMMEEGSKYGARFGVHVNASEMYPEAKAFSEDMVRRNSAGGLSYGWNWLDQGVGIDGIYDLASGSRVSRFADLSKEVGDNMDFIYLDVWGNLTSSGSEDSWETRKMSKMINDNGWRMTTEWGSGNEYDSTFQHWAADLTYGGYTSKGENSEVMRFLRNHQKDSWVGDYPQYGGAANAPLLGGYNMKDFEGWQGRNDYAAYIKNLYTHDVSTKFIQHFKVTRWVNNPLLTADNGNAAAVSDPNTNNGNEQITLKDSNGNVVVVSRGSNDTSSAAYRQRTITFNGVKVASGVVSAGDGSATGDESYLLPWMWDSFTGKLVKDSEQKLYHWNTKGGTTTWTLPDSWKNLSSVKVYQLTDQGKTNEQTVAVSGGKVTLTADAETPYVVYKGEAKQIQVNWSEGMHVVDAGFNGGSNTLTDNWTVSGSGKAEVEGDNNAMLRLTGKVDVSQRLTDLKAGQKYALYVGVDNRSTGDASVTVTSGGKVLATNSTGKSIAKNYIKAYGHNTNSNTENGSSYFQNMYVFFTAPENGDATVTLSHKSTDGAHTYFDDVRIVENQYSGITYEKDGTLKSLTNGFENNAQGIWPFVVSGSEGVEDNRIHLSELHAPFTRAGWDVKKMDDVLDGTWSVKVNGLTQKGTLVYQTIPQNVKFEAGAKYKVSFDYQSGSDDIYAIAVGQGEYSAGSVKLTNLKKALGETGKAEFELTGGVNGDSWFGIYSTATAPDLQGSTGNAQDFGGYKDFVLDNLKIERIESQTRTKAEAQDKVKEIRGKYDSKRAELSDAAWQQYQDTLVKARVLINKNGATAEDFTKAYDILVALDEYMKTAPGNESSDKYDVAADGSDELGGYTVATGSEEPTAGLPSEGPADLAQDGNDSTHWHTSWSENAVGNGTAWYQFNLNEPTTINGLRYLPRSGGMNANGKIKGYKITLTLADGTTKDVVTDAEFSTTTMWQKASFDAVENVTAVRLTVLSSAGQSDSQANKFASAAELRLTTDRE | soluble
14 | MAHHHHHHMNRSASLPSASPSLSTMRTITVALCASSKKHQQSFDALREAGKLHNERLLLMRQHSASRQAGCGDVSGEAGEASTAAPQEGCASGSRGMSSHSRSRRTSRATSEVLAHPARSRSTTEGSLSCAALSNCLFRFLSLNYDAQRHRMVLCIDGDIKEVHQSSAAAFAQDGSKANAQQSPSVDEHAGTDSTVRGEGEPSQSALMDEVDVVLHKVATFGTPVAIRALHQWYNGAQKRRSRQRRAPLIVVDPLEKVQLLMTRSMLCKLLNNVGDDGQPIALIPRTFVWDCPSDAACRHARRTNGSSAATPLGIHSFTSMEEQEARANGTAAEHWWIAKPDESTGAAFTHHLVMWLTRDADVSVPTAVKAALPTEACRFILQELYVYALPVVLKVYCVGSHISVKVNPTVSLLNYLWEHTRGSTLADVPVAMDSQDKAFFSTVASVSTSRSQPTLSAMTSSTDDDALPATSPTMNATNAAGAPPSPTELPQGTSSESASAEQSLIAWESMVVPVDYWNAFLAPGTPAYTAISKLAQDLSGDAGVGLSLYGFDLVLVPQYLAHTYQRKGARGIGRTEGATVRYEGVAPSLSKVAHRSADTAKPVQRIPASHSMRKLPGAGASAPPSPVSQLFRASDMFDLASGAPTSLLLDSIPVVIDVNYFPGYKGVAEVNQHMLELIALKSMHLQDGSSNRAWHADTATGAEAKKRRCSMM | not soluble
15 | MGSDKIHHHHHHMPEEIVTRVITFFFPYDSKVEGKNDCVDTYKIHTFPEYENSDWYRGDPRDHSNGQPNGHEMWGHGQIGWWQKDENGWHWYWEDESNMPRPTQGLSEIMSTTTTTGSPLSIYSTTPSDAPETYSDTVLSVVLGF | not soluble
16 | MGSDKIHHHHHHMTTTPFNRLLLTGAAGGLGKVLRERLKGYAEVLRLSDISPMAPAAGPHEEVITCDLADKAAVHTLVEGVDAIIHFGGVSTEHAFEEILGPNICGVFHVYEAARKHGVKRIIFASSNHTIGFYRQDERIDAHAPRRPDSYYGLSKCYGEDVASFYFDRYGIETVSIRIGSSFPQPQNLRMLCTWLSYDDLVQLIERGLFTPGVGHTIVYGASDNRTVWWDNRHAAHLGYVPKDSSETFRAAVEAQPAPAADDPSMVYQGGAFAVAGPFN | not soluble
17 | MLKTNSSRDGKIKLTVDQMLGKLARWIRLMGYDVYYPAGNVSDNEIIEVSKNEGRILITKDYELYSRYPLSIYELYSNIDDQLYDFVFHFRKRTEEEFKRCPVCNGKLVKVYASPHVLNHRDLYRCEFCGKLYWKGTHYKKIYRKLKSLEKKSGAGRLEHHHHHH | not soluble
